Source: article PMC3097226

B1: CD95 (Fas/APO-1): N118Q (protein)
parent chain: MLGIWTLLPLVLTSVARLSSKSVNAQVTDINSKGLELRKTVTTVETQNLEGLHHDGQFCHKPCPPGERKARDCTVNGDEPDCVPCQEGKEYTDKAHFSSKCRRCRLCDEGHGLEVEINCTRTQNTKCRCKPNFFCNSTVCEHCDPCTKCEHGIIKECTLTSNTKCKEEGSRSNLGWLCLLLLPIPLIVWVKRKEVQKTCRKHRKENQGSHESPTLNPETVAINLSDVDLSKYITTIAGVMTLSQVKGFVRKNGVNEAKIDEIKNDNVQDTAEQKVQLLRNWHQLHGKKEAYDTLIKDLKKANLCTLAEKIQTIILKDITSDSENSNFRNEIQSLV
B2: CD95 (Fas/APO-1): N118Q/N136Q (protein)
parent chain: B1 parent chain
B3: CD95 (Fas/APO-1): N136Q (protein)
parent chain: B1 parent chain
B4: CD95 (Fas/APO-1): VCN (protein)
parent chain: B1 parent chain
B5: CD95 (Fas/APO-1): DMM (protein)
parent chain: B1 parent chain

Columns and labels:
[1] = high molecular weight CD95 complexes after anti-APO-1, Western blot; details: glycan lost; control: WT CD95
[2] = cycloheximide chase, Western blot, HEK293T; details: glycan lost; control: WT CD95
[3] = anti-APO-1 surface staining (flow cytometry), transient HeLa; details: glycan lost; control: WT CD95
[4] = confocal microscopy, stable HeLa lines; details: glycan lost; control: WT CD95
[5] = anti-APO-1 surface staining, flow cytometry; details: glycan changed form; control: untreated SKW6.4 cells

Row | Protein | oligomerisation [1] | degradation_or_half_life [2] | localisation_or_trafficking [3] | localisation_or_trafficking [4] | localisation_or_trafficking [5]
1 | B1 | no change | no change | no change | no change | 
2 | B2 | no change | no change |  |  | 
3 | B3 | no change | no change | no change | no change | 
4 | B4 |  |  |  |  | no change
5 | B5 |  |  |  |  | no change
